Assay in all cases: gcPBM; about 25 ug protein; PBS, 1% milk, 0.2 mg/ml BSA, salmon testes DNA, 0.03% Triton X-100
The target of one data set is T1, SIP2 D1 (Plasmodium falciparum, UniProt C6KSN9 177-235).
T1 sequence: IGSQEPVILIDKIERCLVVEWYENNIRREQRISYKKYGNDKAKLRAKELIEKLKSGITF
To be noted: tags: N-terminal GST (pGEX-4T-1), kept; label: surface-attached array probe.

The target in a further data set is AP2-I D3 (Plasmodium falciparum, UniProt Q8IJW6 910-1027). To be noted: tags: N-terminal GST (pGEX-4T-1), kept; label: surface-attached array probe.
In a further data set the target is T2, HDP1 homeodomain-like (Plasmodium falciparum, UniProt Q8IKH4 2990-3078).
T2 sequence: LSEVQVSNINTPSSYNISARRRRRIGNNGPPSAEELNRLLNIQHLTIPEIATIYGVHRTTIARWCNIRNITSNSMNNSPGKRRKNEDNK
To be noted: tags: N-terminal GST (pGEX-4T-1), kept; chain copies: 2; label: surface-attached array probe.

B1: GTGCAC_site10153 (dsDNA)
DNA 1: AAAATGTAATATTGGGTGCACAATAAGTTTGATGTC
DNA 2: GACATCAAACTTATTGTGCACCCAATATTACATTTT
For B1, the binding signal in the data set with SIP2 D1 is 11.5 ln median PBM intensity, better of two orientations; with AP2-I D3, 12.2 ln median PBM intensity, better of two orientations.

B2: GTGCAC_site10368 (dsDNA)
DNA 1: ACATGTGAATTTTAGGTGCACTTGTAATTTAACATT
DNA 2: AATGTTAAATTACAAGTGCACCTAAAATTCACATGT
Turning to B2, the binding signal with SIP2 D1 is 11.7 ln median PBM intensity, better of two orientations; in the data set with AP2-I D3 it was 10.9 ln median PBM intensity, better of two orientations.

B3: GTGCAC_site10051 (dsDNA)
DNA 1: AATAAATTAAAACAGGTGCACTATATTACACACGCT
DNA 2: AGCGTGTGTAATATAGTGCACCTGTTTTAATTTATT
As to B3, the binding signal in the data set with SIP2 D1 was 11.6 ln median PBM intensity, better of two orientations; with AP2-I D3 it was 12 ln median PBM intensity, better of two orientations.

B4: GTGCAC_site9615 (dsDNA)
DNA 1: TTATTTTATTTTTTTGTGCACATATATATTTATAAA
DNA 2: TTTATAAATATATATGTGCACAAAAAAATAAAATAA
On to B4, for which the binding signal with HDP1 homeodomain-like is 11.9 ln median PBM intensity, better of two orientations.

B5: GTGCAC_site10578 (dsDNA)
DNA 1: CATATTGTCATTCTGGTGCACTTTTTTTTTTTTTTT
DNA 2: AAAAAAAAAAAAAAAGTGCACCAGAATGACAATATG
With B5, the binding signal in the data set with SIP2 D1 is 11.4 ln median PBM intensity, better of two orientations; with AP2-I D3, 10.9 ln median PBM intensity, better of two orientations.

B6: GTGCAC_site10340 (dsDNA)
DNA 1: ATTATTATTAATCTTGTGCACATATATTTTAATTAG
DNA 2: CTAATTAAAATATATGTGCACAAGATTAATAATAAT
As for B6, the binding signal in the data set with HDP1 homeodomain-like is 11.6 ln median PBM intensity, better of two orientations.

B7: GTGCAC_site9431 (dsDNA)
DNA 1: TCTTCTTTAAAAGAGGTGCACTATATAATGTGATTA
DNA 2: TAATCACATTATATAGTGCACCTCTTTTAAAGAAGA
With B7, the binding signal in the data set with SIP2 D1 is 11.8 ln median PBM intensity, better of two orientations; in the data set with AP2-I D3, 12.2 ln median PBM intensity, better of two orientations.

B8: GTGCAC_site9947 (dsDNA)
DNA 1: TATTTGAAAACATAGGTGCACATTATTTTATAATCT
DNA 2: AGATTATAAAATAATGTGCACCTATGTTTTCAAATA
For B8, the binding signal in the data set with SIP2 D1 is 11.6 ln median PBM intensity, better of two orientations; with AP2-I D3 it was 11.1 ln median PBM intensity, better of two orientations.

B9: GTGCAC_site9630 (dsDNA)
DNA 1: TTTAATTTATATTTTGTGCACATCTTATTATATATA
DNA 2: TATATATAATAAGATGTGCACAAAATATAAATTAAA
B9: the binding signal with HDP1 homeodomain-like is 11.7 ln median PBM intensity, better of two orientations.

B10: GTGCAC_site9624 (dsDNA)
DNA 1: GACAAATAATAAAAGGTGCATTATACTTAACAAAAA
DNA 2: TTTTTGTTAAGTATAATGCACCTTTTATTATTTGTC
For the molecule B10, the binding signal in the data set with SIP2 D1 is 11.4 ln median PBM intensity, better of two orientations; in the data set with AP2-I D3, 12.2 ln median PBM intensity, better of two orientations.

B11: GTGCAC_site9981 (dsDNA)
DNA 1: ATAATGTTCACATAGGTGCACTAATATAATTATCCA
DNA 2: TGGATAATTATATTAGTGCACCTATGTGAACATTAT
For the molecule B11, the binding signal with SIP2 D1 is 11.4 ln median PBM intensity, better of two orientations; with AP2-I D3 it was 12.2 ln median PBM intensity, better of two orientations.

B12: GTGCAC_site10700 (dsDNA)
DNA 1: ATTATACAAATTGAGGTGCATGAAACAAAATATGAA
DNA 2: TTCATATTTTGTTTCATGCACCTCAATTTGTATAAT
Take B12: the binding signal in the data set with SIP2 D1 was 10.6 ln median PBM intensity, better of two orientations; with AP2-I D3 it was 9.77 ln median PBM intensity, better of two orientations.

B13: GTGCAC_site9957 (dsDNA)
DNA 1: TTTTAATGTACCAGTGTGCACCTTGCGTACATATTA
DNA 2: TAATATGTACGCAAGGTGCACACTGGTACATTAAAA
Take B13: the binding signal with SIP2 D1 is 11.8 ln median PBM intensity, better of two orientations; with AP2-I D3, 10.3 ln median PBM intensity, better of two orientations.

B14: GTGCAC_site10073 (dsDNA)
DNA 1: AAATACTGTACAAAGGTGCATAAAAAGTGGGGCATA
DNA 2: TATGCCCCACTTTTTATGCACCTTTGTACAGTATTT
On to B14, for which the binding signal with SIP2 D1 is 11.1 ln median PBM intensity, better of two orientations; in the data set with AP2-I D3, 11.7 ln median PBM intensity, better of two orientations.

B15: GTGCAC_site9422 (dsDNA)
DNA 1: CACTCTTAAAATAAGGTGCACTATATAACGTGATTA
DNA 2: TAATCACGTTATATAGTGCACCTTATTTTAAGAGTG
Turning to B15, the binding signal with SIP2 D1 is 11.7 ln median PBM intensity, better of two orientations; with AP2-I D3 it was 12.2 ln median PBM intensity, better of two orientations.

These data come from PMC11417369, “DNA sequence and chromatin differentiate sequence-specific transcription factor binding in the human malaria parasite Plasmodium falciparum”.
